Experimental data reported in patent publication US20240301052A1 (LANOVA MEDICINES DEVELOPMENT, published 2024).
Where two headings read alike, the source gives them in different places.

T1: human SLC34A2 (human, UniProt O95436 1-690)
T1 construct: whole, on cells; also called human solute carrier 34 A2; NaPi2b
T1 sequence (looked up): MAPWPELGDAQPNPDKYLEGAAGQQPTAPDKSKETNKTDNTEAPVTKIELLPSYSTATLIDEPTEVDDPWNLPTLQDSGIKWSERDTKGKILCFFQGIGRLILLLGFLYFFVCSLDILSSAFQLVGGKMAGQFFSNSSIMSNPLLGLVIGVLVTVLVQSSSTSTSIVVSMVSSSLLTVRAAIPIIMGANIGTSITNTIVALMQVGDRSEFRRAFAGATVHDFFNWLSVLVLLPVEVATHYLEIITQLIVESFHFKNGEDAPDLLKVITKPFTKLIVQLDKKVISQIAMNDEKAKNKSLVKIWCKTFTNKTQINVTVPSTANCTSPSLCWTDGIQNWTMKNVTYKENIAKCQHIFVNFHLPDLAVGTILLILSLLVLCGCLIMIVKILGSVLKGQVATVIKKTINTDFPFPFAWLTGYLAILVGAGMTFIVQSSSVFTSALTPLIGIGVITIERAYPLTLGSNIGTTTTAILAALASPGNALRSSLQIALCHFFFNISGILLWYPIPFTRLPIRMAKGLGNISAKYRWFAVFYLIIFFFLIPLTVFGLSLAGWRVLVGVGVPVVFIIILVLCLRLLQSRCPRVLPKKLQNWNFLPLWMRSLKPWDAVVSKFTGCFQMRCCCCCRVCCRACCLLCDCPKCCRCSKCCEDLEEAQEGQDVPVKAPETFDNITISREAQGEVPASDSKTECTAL

T2: Rhesus SLC34A2 (Rhesus, UniProt F7HDA3 1-690)
T2 construct: whole, on cells
T2 sequence: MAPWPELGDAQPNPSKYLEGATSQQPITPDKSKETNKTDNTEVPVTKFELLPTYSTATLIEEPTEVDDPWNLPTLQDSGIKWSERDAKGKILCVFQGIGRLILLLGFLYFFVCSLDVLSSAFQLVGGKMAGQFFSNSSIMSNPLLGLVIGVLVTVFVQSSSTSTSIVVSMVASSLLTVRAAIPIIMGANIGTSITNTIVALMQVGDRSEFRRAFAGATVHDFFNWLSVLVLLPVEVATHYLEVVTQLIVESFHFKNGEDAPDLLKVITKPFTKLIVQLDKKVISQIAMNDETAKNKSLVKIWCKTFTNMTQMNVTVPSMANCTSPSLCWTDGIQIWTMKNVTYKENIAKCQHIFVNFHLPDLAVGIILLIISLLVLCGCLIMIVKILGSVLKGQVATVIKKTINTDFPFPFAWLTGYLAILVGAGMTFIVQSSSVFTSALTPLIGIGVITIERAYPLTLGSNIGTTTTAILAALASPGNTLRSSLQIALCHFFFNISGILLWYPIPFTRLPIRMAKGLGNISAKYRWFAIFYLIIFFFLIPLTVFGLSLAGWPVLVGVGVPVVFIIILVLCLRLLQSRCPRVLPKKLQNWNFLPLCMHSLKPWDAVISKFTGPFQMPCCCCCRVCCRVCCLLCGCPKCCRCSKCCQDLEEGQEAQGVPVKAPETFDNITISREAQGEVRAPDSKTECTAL


What was measured:
human SLC34A2 [1] = target: T1, human SLC34A2; test: FACS, RMG-1 cells
Experimental: (§1) In another testing, cell based binding of hu Abs on human SLC34A2 expressing cells were assessed using flow cytometry. Briefly, the HEK293/H_SLC34A2, OVCAR3 and RMG-1 cells were incubated with hu Abs. After incubation at 4° C. for 60 minutes, the cells were washed with FACS buffer twice, then stained with fluorescent conjugated secondary antibody at 4° C. for 30 minutes. After that the cells were washed twice and analyzed by flow cytometry.

human SLC34A2 [2] = target: T1, human SLC34A2; test: FACS, OVCAR3 cells
Experimental: as §1

human SLC34A2 [3] = target: T1, human SLC34A2; test: FACS, OVCAR3 cells; remark: listed apart in the source
Rhesus SLC34A2 = target: T2, Rhesus SLC34A2; test: FACS, HEK293/Rhesus SLC34A2 cells
human SLC34A2 [4] = target: T1, human SLC34A2; test: FACS, HEK293/human SLC34A2 cells
Experimental: as §1

human SLC34A2 [5] = target: T1, human SLC34A2; test: cell-based or functional assay
human SLC34A2 [6] = target: T1, human SLC34A2; test: FACS, OVCAR3 cells; remark: listed apart in the source
human SLC34A2 [7] = target: T1, human SLC34A2; test: FACS, OVCAR3 cells; remark: listed apart in the source
Experimental: The binding of these humanized antibodies to OVCAR3 cells was evaluated as described above, and the results are shown in FIG. 12A-D and Tables 16A-D.

Row | Binder | EC50 (human SLC34A2 [1]) [nM] | Top (human SLC34A2 [1]) [MFI] | EC50 (human SLC34A2 [2]) [nM] | EC50 (human SLC34A2 [3]) [nM] | Top (MFI) (human SLC34A2 [3]) | EC50 (Rhesus SLC34A2) [nM] | Top (MFI) (Rhesus SLC34A2) | EC50 (human SLC34A2 [4]) [nM] | Top (human SLC34A2 [4]) [MFI] | ADCC reporter EC50 (human SLC34A2 [5]) [nM] | ADCC reporter Top (MFI) (human SLC34A2 [5]) | EC50 (human SLC34A2 [6]) [nM] | Top (MFI) (human SLC34A2 [6]) | EC50 (human SLC34A2 [7]) [nM] | Top (MFI) (human SLC34A2 [7])
1 | 63A11D5B4.p1.z5 hIgG1 (antibody, V domains shown, humanized hIgG1) VH: QVQLVQSGAEVKKPGASVKVSCKTSGYTFITYNMHWVRQAPGQGLEWIGAIYPGSGDTSYNQKFKGRVTMTADTSTSTVYMELSSLRSEDTAVYYCSISTIITTGAVDYWGQGTLVTVSS VL: DIQMTQSPSSLSASVGDRVTITCKASQDVGTAVAWYQQKPGKVPKLLIYWTSTRHTGVPSRFSGSGSGTDFTLTISSLQPEDVATYYCQQYSRIPLTFGGGTKVEIK | 36.2 | 11800 | 13.5 | 13.5 | 28200 | 3.9 | 11100 | 4.8 | 35900 | 0.95 | 116000 | – | – | – | –
2 | 91C9F1.p1.z8 hIgG1 (antibody, V domains shown, humanized hIgG1) VH: QVQLVQSGAEVKKPGSSVKVSCKTSGFFFTEYIIHWVRQAPGQGLEWIGGIIPNNDVTNYKQNFRGRVTLTADKSTSTAYMELSSLRSEDTAVYYCARWRNAYYSAMDSWGQGTTVTVSS VL: DIVVTQSPSSLSTSVGDRVTITCTASQDVGTAVAWYQQKPGKSPKLLIYWASTRHTGVPERFTGSGSGTDFTLTISSVQPEDVATYFCQQYRTSPLTFGVGTKLELK | – | – | – | – | – | – | – | – | – | – | – | 2.13 | 35700 | – | –
3 | 91C9F1.p1.z5 hIgG1 (antibody, V domains shown, humanized hIgG1) VH: QVQLVQSGAEVKKPGSSVKVSCKTSGFFFTEYIIHWVRQAPGQGLEWIGGIIPNNDVTNYKQNFRGRVTLTADKSTSTAYMELSSLRSEDTAVYYCARWRNAYYSAMDSWGQGTTVTVSS VL: DIQMTQSPSSLSASVGDRVTITCTASQDVGTAVAWYQQKPGKVPKLLIYWASTRHTGVPSRFSGSGSGTDFTLTISSLQPEDVATYYCQQYRTSPLTFGGGTKVEIK | – | – | – | – | – | – | – | – | – | – | – | 2.95 | 36900 | – | –
4 | 91C9F1.p1.z9 hIgG1 (antibody, V domains shown, humanized hIgG1) VH: QVQLVQSGAEVVKPGSSVKVSCKTSGFFFTEYIIHWVRQSPGQGLEWIGGIIPNNDVTNYKQNFRGRATLTADKSTSTAYMELSSLRSEDTAVYYCARWRNAYYSAMDSWGQGTTVTVSS VL: DIQMTQSPSSLSASVGDRVTITCTASQDVGTAVAWYQQKPGKVPKLLIYWASTRHTGVPSRFSGSGSGTDFTLTISSLQPEDVATYYCQQYRTSPLTFGGGTKVEIK | – | – | – | – | – | – | – | – | – | – | – | 2.72 | 37000 | – | –
5 | 63A11D5B4.p1.z15 hIgG1 (antibody, V domains shown, humanized hIgG1) VH: QVQLQQSGAEVVKPGASVKMSCKTSGYTFITYNMHWVKQAPGQGREWIGAIYPGSGDTSYNQKFKGRATLTADKSTSTAYMELSSLRSEDTAVYYCSISTIITTGAVDYWGQGTSVTVSS VL: DIQMTQSPSSLSTSVGDRVTITCKASQDVGTAVAWYQQKPGQSPKLLIYWTSTRHTGVPDRFSGSGSGTDFTLIIRSLQPEDVATYFCQQYSRIPLTFGGGTKVEIK | 40.6 | 13200 | 9.23 | 9.23 | 30200 | 4.7 | 10300 | 7.12 | 37000 | 1.47 | 122000 | – | – | – | –
6 | 30H9B8F9.p1.z13 hIgG1 (antibody, V domains shown, humanized hIgG1) VH: QVQLVQSGAEVVKPGASVKMSCKTSGYTFTTNNMHWVKQAPGQGLEWIGAIYPGSGATAYNQKFKGRATLTADKSTSTAYMELSSLRSEATAVYYCARGMYGHGAMDYWGQGTSVTVSS VL: DIQLTQSPSFLSASVGDRVTITCKASQDVGTAVAWYQQKPGKAPKLLIYWATTRHSGVPSRFSGSGSGTEFTLTISSLQPEDFATYYCQQYSSNPLTFGQGTKLEIK | 0.73 | 10900 | 0.62 | – | – | 0.8 | 15600 | 1.05 | 33000 | 0.96 | 143000 | – | – | 1.03 | 28400
7 | 30H9B8F9.p1.z6 hIgG1 (antibody, V domains shown, humanized hIgG1) VH: QVQLVQSGAEVKKPGASVKVSCKTSGYTFTTNNMHWVRQAPGQGLEWIGAIYPGSGATAYNQKFKGRVTMTADTSTSTVYMELSSLRSEDTAVYYCARGMYGHGAMDYWGQGTLVTVSS VL: DIQLTQSPSFLSASVGDRVTITCKASQDVGTAVAWYQQKPGKSPKLLIYWATTRHSGVPDRFSGSGSGTEFTFTISSLQPEDFATYFCQQYSSNPLTFGQGTKLEIK | 1.78 | 10400 | 1.1 | – | – | 1.1 | 15100 | 1.94 | 33600 | 1.25 | 135000 | – | – | 1.62 | 28400
8 | 30H9B8F9.p1.z9 hIgG1 (antibody, V domains shown, humanized hIgG1) VH: QVQLVQSGAEVVKPGASVKVSCKTSGYTFTTNNMHWVRQAPGQGLEWIGAIYPGSGATAYNQKFKGRVTLTADKSTSTAYMELSSLRSEATAVYYCARGMYGHGAMDYWGQGTLVTVSS VL: DIQLTQSPSFLSASVGDRVTITCKASQDVGTAVAWYQQKPGKAPKLLIYWATTRHSGVPSRFSGSGSGTEFTLTISSLQPEDFATYYCQQYSSNPLTFGQGTKLEIK | 1.4 | 11600 | 1.08 | – | – | 0.9 | 16300 | 1.81 | 34200 | 1.53 | 145000 | – | – | 1.59 | 29400

Second part, the binder after the results:

Row | EC50 (human SLC34A2 [1]) [nM] | Top (human SLC34A2 [1]) [MFI] | EC50 (human SLC34A2 [2]) [nM] | EC50 (human SLC34A2 [3]) [nM] | Top (MFI) (human SLC34A2 [3]) | EC50 (Rhesus SLC34A2) [nM] | Top (MFI) (Rhesus SLC34A2) | EC50 (human SLC34A2 [4]) [nM] | Top (human SLC34A2 [4]) [MFI] | ADCC reporter EC50 (human SLC34A2 [5]) [nM] | ADCC reporter Top (MFI) (human SLC34A2 [5]) | EC50 (human SLC34A2 [6]) [nM] | Top (MFI) (human SLC34A2 [6]) | EC50 (human SLC34A2 [7]) [nM] | Top (MFI) (human SLC34A2 [7]) | Binder
9 | – | – | – | – | – | – | – | – | – | – | – | 3.87 | 36200 | – | – | 91C9F1.p1.z14 hIgG1 (antibody, V domains shown, humanized hIgG1) VH: QVQLVQSGAEVVKPGSSVKISCKTSGFFFTEYIIHWVKQSPGQGLEWIGGIIPNNDVTNYKQNFRGRATLTADKSTNTAYMELRSSLRSEDTAVYYCARWRNAYYSAMDSWGQGTTVTVSS VL: DIQMTQSPSSLSTSVGDRVTITCTASQDVGTAVAWYQQKPGKSPKLLIYWASTRHTGVPERFSGSGSGTDFTLTISSLQPEDVATYFCQQYRTSPLTFGGGTKVEIK
10 | – | – | – | – | – | – | – | – | – | – | – | 1.77 | 34500 | – | – | 91C9F1.p1.z12 hIgG1 (antibody, V domains shown, humanized hIgG1) VH: QVQLVQSGAEVVKPGSSVKVSCKTSGFFFTEYIIHWVRQSPGQGLEWIGGIIPNNDVTNYKQNFRGRATLTADKSTSTAYMELSSLRSEDTAVYYCARWRNAYYSAMDSWGQGTTVTVSS VL: DIVVTQSPSSLSTSVGDRVTITCTASQDVGTAVAWYQQKPGKSPKLLIYWASTRHTGVPERFTGSGSGTDFTLTISSVQPEDVATYFCQQYRTSPLTFGVGTKLELK
11 | – | – | – | – | – | – | – | – | – | – | – | 1.41 | 31000 | – | – | 91C9F1.p1.z11 hIgG1 (antibody, V domains shown, humanized hIgG1) VH: QVQLVQSGAEVVKPGSSVKVSCKTSGFFFTEYIIHWVRQSPGQGLEWIGGIIPNNDVTNYKQNFRGRATLTADKSTSTAYMELSSLRSEDTAVYYCARWRNAYYSAMDSWGQGTTVTVSS VL: DIQVTQSPSSLSTSVGDRVTITCTASQDVGTAVAWYQQKPGKSPKLLIYWASTRHTGVPERFTGSGSGTDFTLTISSVQPEDVATYFCQQYRTSPLTFGVGTKVEIK
